Article PMC8820655 (bioRxiv, 2022)

Key:
[1] = biological target: His-tagged RBD protein of SARS-CoV-2 (SARS-CoV-2, wild type (Wuhan-Hu-1 …, UniProt P0DTC2)); assay: BLI
Fc-tagged wild-type RBD = Fc-tagged wild-type RBD (SARS-CoV-2, UniProt P0DTC2); assay: BLI

B1: CoV2–06 (antibody, V domains shown)
VH: QVELQESGPGLVKPSGTLSLTCAVSGGSISSNNWWTWVRQPPGKGLEWIGEIHHSGGTNYNPSLKSRVTMSVDKSKNQFSLNLYSVTAADTAVYYCTRDRAGGTYSGFDFWGQGTLVTVSS
VL: QAVVTQPASVSGSPGQSITISCTGTSSDVGGYNYVSWYQQHPGKAPKLMIYDVSNRPSGVSNRFSGSKSGNTASLTISGLQAEDEADYYCSSYTSSSTVVFGGGTKVTVL
**Q.** Which “fold change of the avidity KD, RBD loaded at 1000 ng/ml against 40 ng/ml” value [1] does the source give for B1 here?
**A.** 46 fold

**Q.** And the IC50 (Fc-tagged wild-type RBD)?
**A.** 39.8 nM

B2: CoV2–14 (antibody, V domains shown)
VH: EVQLQQSGPGLVKPSQTLSLTCAISGDSVSSNSAAWNWIRQSPSRGLEWLGRTYYRSKWYNDYAVSVKSRITINPDTSKNQFSLQLNSVTPEDTAVYYCAREEQQLVHDYYYYGMDVWGQGTMVTVSS
VL: QAVVTQPASVSGSPGQSITISCTGTSSDIGAYNYISWYQQHPGKAPKLIIYEVSNRPSGISYRFSGSKSGNTASLTISGLQAEDEANYYCSSYAGSISFGGGTKVTVL
**Q.** How did the “fold change of the avidity KD, RBD loaded at 1000 ng/ml against 40 ng/ml” value [1] turn out when B2 was run?
**A.** 2 fold

**Q.** What about the IC50 (Fc-tagged wild-type RBD) of the same binder?
**A.** 10.6 nM
